From patent publication US20220275069 come the findings set out here.

This data set deals with T1, Recombinant gasdermin D (rGSDMD), full-length.
T1 sequence: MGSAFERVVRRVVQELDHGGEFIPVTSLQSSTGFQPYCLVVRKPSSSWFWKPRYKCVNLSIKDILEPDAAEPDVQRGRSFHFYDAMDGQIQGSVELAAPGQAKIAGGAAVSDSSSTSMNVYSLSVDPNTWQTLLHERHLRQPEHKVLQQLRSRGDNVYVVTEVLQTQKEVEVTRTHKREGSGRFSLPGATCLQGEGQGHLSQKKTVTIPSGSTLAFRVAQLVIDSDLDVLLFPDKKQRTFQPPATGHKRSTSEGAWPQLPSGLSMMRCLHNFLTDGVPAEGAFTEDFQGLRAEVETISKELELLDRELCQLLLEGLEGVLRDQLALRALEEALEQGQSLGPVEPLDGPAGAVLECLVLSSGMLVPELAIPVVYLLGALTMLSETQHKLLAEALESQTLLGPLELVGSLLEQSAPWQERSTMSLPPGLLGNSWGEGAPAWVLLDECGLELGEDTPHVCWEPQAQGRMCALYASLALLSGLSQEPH

For the substance Recombinant caspase-1, the “cleavage of recombinant gasdermin D (1 hour at 37 C, SDS-PAGE and protein stain)” value was “resulted in the formation of a ~31 kDa N-terminal domain and ~22 kDa C-terminal domain”.
